Data from the supplement of paper PMC7877785.
± gives the uncertainty stated by the source.

Assay: self-splicing fitness, log relative to wild type (ln ratio); higher = more splicing; Tetrahymena group I intron in knt gene, E. coli kanamycin selection, DiMSum; sequences stand for … in CUCUCU…GGAGGGAAAAGUUAUCAGGCAUGCACCUGGUAGCUAGUCUUUAAACCAAUAGAUUGCAUCGGUUUAAAAGGCAAGACCGUCAAAUUGCGGGAAAGGGGUCAACAGCCGUUCAGUACCAAGUCUCAGGGGAAACUUUGAGAUGGCCUUGCAAAGGGUAUGGUAAUAAGCUGACGGACAUGGUCCUAACCACGCAGCCAAGUCCUAAGUCAACAGAUCUUCUGUUGAUAUGGAUGCAGUUCACAGACUAAAUGUCGGUCGGGGAAGAUGUAUUCUUCUCAUAAGAUAUAGUCGGACCUCUCCUUAAUGGGAGCUAGCGGAUGAAGUGAUGCAACACUGGAGCCGCUGGGAACUAAUUUGUAUGCGAAAGUAUAUUGAUUAGUUUUGGAGUACUCGUGGUCG
How it was run: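 Six replicate transformations of E. coli BL21(DE3) with a pET-22b(+) library were grown overnight at 37°C or 30°C. The library randomised all eight P1ex-region intron nucleotides, the intron lying in the knt kanamycin-resistance gene, and plates were LB agar with or without 25 μg/mL kanamycin plus 100 μg/mL carbenicillin, 50 μM IPTG and 0.2% rhamnose. Pooled colonies were amplicon-sequenced on an Illumina HiSeq 2500, and fitness is the DiMSum error-weighted combination of wild-type-normalised replicate fold changes, kanamycin versus none.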

Sequence	self-splicing fitness (ln) (30 °C)	self-splicing fitness (ln) (37 °C)
UCAGAGCAAUAUUACGGUAU	-2.79 ± 0.2	-3.2 ± 0.44
UCAGAGCAAUAUUACGGUGG	-3.06 ± 0.089	-1.32 ± 0.084
UCAGAGCAAUAUUACGUAAU	-2.52 ± 0.25	-1.66 ± 0.3
UCAGAGCAAUAUUACGUAUU	-3.31 ± 0.2	-3.08 ± 0.29
UCAGAGCAAUAUUACGUCGU	-2.89 ± 0.24	-0.54 ± 0.24
UCAGAGCAAUAUUACGUGGA	-2.49 ± 0.17	-0.107 ± 0.12
UCAGAGCAAUAUUACGUUCC	-3.84 ± 0.47	-2.57 ± 0.49
UCAUAGCAAUAUUACGAAGG	-2.69 ± 0.14	-1.31 ± 0.11
UCAUAGCAAUAUUACGAAUA	-2.82 ± 0.28	-1.04 ± 0.28
UCAUAGCAAUAUUACGAAUG	-2.7 ± 0.16	-1.83 ± 0.16
UCAUAGCAAUAUUACGAAUU	-3.73 ± 0.32	-2.48 ± 0.24
UCAUAGCAAUAUUACGACAA	-2.43 ± 0.26	-1.06 ± 0.15
UCAUAGCAAUAUUACGACAC		-2.64 ± 0.29
UCAUAGCAAUAUUACGAGCC		-1.76 ± 0.49
UCAUAGCAAUAUUACGAUGG	-3.32 ± 0.19	-1.3 ± 0.17
UCAUAGCAAUAUUACGAUUC	-2.39 ± 0.18	-2.6 ± 0.33
UCAUAGCAAUAUUACGAUUG	-2.31 ± 0.13	-1.38 ± 0.13
UCAUAGCAAUAUUACGCAAG	-1.94 ± 0.15	-2.04 ± 0.2
UCAUAGCAAUAUUACGCCGU	-3.49 ± 0.34	-1.85 ± 0.39
UCAUAGCAAUAUUACGCGUC	-3.76 ± 0.31	
UCAUAGCAAUAUUACGGGCG	-1.12 ± 0.096	-0.909 ± 0.12
UCAUAGCAAUAUUACGGUCC	-3.53 ± 0.37	-1.81 ± 0.35

Sequence	self-splicing fitness (ln) (30 °C)	self-splicing fitness (ln) (37 °C)
UCAUAGCAAUAUUACGGUUG	-3.07 ± 0.19	-1.94 ± 0.17
UCAUAGCAAUAUUACGUAGU	-3.07 ± 0.21	-2.17 ± 0.28
UCAUAGCAAUAUUACGUCAA	-2.44 ± 0.32	
UCAUAGCAAUAUUACGUUAA		-3.44 ± 0.42
UCAUAGCAAUAUUACGUUAG	-2.9 ± 0.25	-1.66 ± 0.19
UCCAAGCAAUAUUACGAACA	-1.87 ± 0.14	-0.969 ± 0.13
UCCAAGCAAUAUUACGAGAC		-2.23 ± 0.29
UCCAAGCAAUAUUACGAGGC	-3.67 ± 0.23	-2.26 ± 0.22
UCCAAGCAAUAUUACGAUAG	-2.81 ± 0.13	-2.98 ± 0.21
UCCAAGCAAUAUUACGCGCG	-2.95 ± 0.17	-1.49 ± 0.23
UCCAAGCAAUAUUACGCGGC	-2.74 ± 0.23	-2.94 ± 0.23
UCCAAGCAAUAUUACGGCAC	-4.06 ± 0.29	-0.668 ± 0.11
UCCAAGCAAUAUUACGGCAU	-3.77 ± 0.21	-1.48 ± 0.12
UCCAAGCAAUAUUACGGCCC		-1.45 ± 0.32
UCCAAGCAAUAUUACGGGGA	-2.58 ± 0.15	-1.27 ± 0.1
UCCAAGCAAUAUUACGGUCU	-2.33 ± 0.1	-0.343 ± 0.097
UCCAAGCAAUAUUACGGUUC	-3.22 ± 0.22	-2.56 ± 0.18
UCCAAGCAAUAUUACGUAGG	-0.867 ± 0.06	-0.159 ± 0.094
UCCAAGCAAUAUUACGUCCG	-2.76 ± 0.21	-1.81 ± 0.19
UCCAAGCAAUAUUACGUGGA	-2.9 ± 0.17	-3.47 ± 0.29
UCCAAGCAAUAUUACGUUAU	-2.78 ± 0.18	-3.5 ± 0.37
UCCCAGCAAUAUUACGAACC	-1.58 ± 0.2	-2.08 ± 0.46
